Reference: paper PMC5303273, “Rab1 interacts with GOLPH3 and controls Golgi structure and contractile ring constriction during cytokinesis in Drosophila melanogaster” (Open Biology, 2017)

Molecular target: T1, 6XHis-GOLPH3 (Drosophila melanogaster, UniProt Q9VQ93 1-294)
T1 construct: Drosophila GOLPH3 made with the pET Directional TOPO Expression kit; also called 6XHis-tagged GOLPH3; recombinant GOLPH3; source: recombinant (pET Directional TOPO Expression kit), purified (cOmplete His-Tag Purification Resin)
T1 sequence (Q9VQ93 whole entry): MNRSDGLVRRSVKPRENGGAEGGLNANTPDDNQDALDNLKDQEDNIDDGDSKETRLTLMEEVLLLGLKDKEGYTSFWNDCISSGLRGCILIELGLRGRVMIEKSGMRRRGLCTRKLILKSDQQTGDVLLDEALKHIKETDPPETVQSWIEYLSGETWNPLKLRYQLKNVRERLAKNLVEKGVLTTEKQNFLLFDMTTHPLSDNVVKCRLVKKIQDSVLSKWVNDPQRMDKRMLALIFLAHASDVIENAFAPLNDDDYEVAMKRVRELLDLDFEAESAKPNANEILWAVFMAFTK
Assay: pull-down; GST-Rab protein on glutathione beads loaded with GMP-PNP (GTP), incubated with recombinant 6XHis-GOLPH3 for 5 h at 4°C; blot with anti-6XHis
Settings: both partners purified

binding result: binds
B1: GST-Rab1 (natural protein)
chain: not shown
notes: full-length cDNA of Drosophila Rab1 cloned into pGEX-6p-2; In the direct pull-down the protein on the beads was loaded with GDP-beta-S or GMP-PNP; also called GST-full-length Drosophila Rab1; source: BL21-CodonPlus (DE3), purified (Glutathione-Sepharose 4B beads)
